For assay [1], the target named is T1, recombinant human CD3 epsilon/delta heterodimer (human, UniProt P07766 23-126; P04234 22-105).
T1 construct: Recombinant heterodimer used as analyte in Octet; also called hCD3 E/D; human CD3E/D
The assay is described as follows: BLI (Octet), mAb 5 ug/mL on FAB2G sensor, hCD3 E/D 200-50 nM.
Experimental: (§1) Samples were evaluated by flow cytometry analysis against Jurkat and human Pan-T cells (FIG. 1B) as well as by Octet against recombinant human CD3 proteins to evaluate apparent affinities and binding off-rates (Table 6, infra).

The target in assay [2] is T2, recombinant human CD3 epsilon/gamma heterodimer (human, UniProt P07766 23-126; P09693 23-116).
T2 construct: Recombinant heterodimer used as analyte in Octet; also called hCD3 E/G
T2 sequence (P07766 23-126, chain 1 of 2): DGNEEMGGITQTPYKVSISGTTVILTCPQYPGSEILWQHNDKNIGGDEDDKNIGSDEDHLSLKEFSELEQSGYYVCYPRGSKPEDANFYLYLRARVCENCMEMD
T2 sequence (P09693 23-116, chain 2 of 2): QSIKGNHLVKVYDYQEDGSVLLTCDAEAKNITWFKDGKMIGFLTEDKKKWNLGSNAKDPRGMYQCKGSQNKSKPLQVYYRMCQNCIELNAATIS
Put plainly: BLI (Octet), mAb 5 ug/mL on FAB2G sensor, hCD3 E/G 200-50 nM.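 Also: antibodies purified from hybridoma supernatants, measured by Octet binding to recombinant human CD3 protein.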
Experimental: as §1

The text below walks through data of US20260167721A1 (ABLEXIS, published 2026).

The term Kd denotes a measure of binding affinity in units of concentration. What is called koff is a measure of how fast the partners let go of each other. For orientation: kon means the second-order rate constant of association.

T1 sequence (P07766 23-126, stated change not applied, chain 1 of 2): as the sequence (P07766 23-126, chain 1 of 2) above
T1 sequence (P04234 22-105, stated change not applied, chain 2 of 2): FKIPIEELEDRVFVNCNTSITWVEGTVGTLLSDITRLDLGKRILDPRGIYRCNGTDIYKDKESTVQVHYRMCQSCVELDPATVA

B1: ABL-CD3-67 (antibody, V domains shown)
VH: EVQLVESGGGLVKPGGSLRLSCAASGFTVSSYSMNWVRQAPGKGLEWVSSISRSSSYIYYADSVKGRFTISRDNAKNSLFLQMNSLRAEDTAVYYCARERWELLYFDYWGQGTLVTVSS
VL: NFMLTQPHSVSESPGKTVTISCTRSSGSIASNYVQWYRQRPGSSPTTVIYEDNQRPSGVPDRFSGAIDSSSTSASLTISGLKTEDEADYYCQSYDSSNRVFGGGTKLTVL
notes: mAb purified from hybridoma; chimeric AlivaMab IgG (human VH, CH1 and upper hinge; mouse middle hinge, CH2, CH3; human light chain)
Take B1: in assay [1], the Kd stood at 53.3 nM, the Response turned out to be 0.58, the koff was determined as 0.00485 s⁻¹ and the kon amounted to 90800 M⁻¹ s⁻¹. In addition, in assay [2], the Kd amounted to 109 nM, the Response was 0.26, the koff amounted to 0.0178 s⁻¹ and the kon amounted to 163000 M⁻¹ s⁻¹.

B2: ABL-CD3-69 (antibody, V domains shown)
VH: EVQLVESGGGLVKPGGSLRLSCAASGFTFSTYTMNWVRQAPGKGLEWVSTITSSSRYIYYADSVKGRFTISRDNAKNSLYLQMNSLRAEDTAVYYCARVTFDAFDIWGQGTMVTVSS
VL: NFMLTQPHSVSESPGKTVTISCTRSSGSIASNYVQWYQQRPGSSPTTVIYEDNQRPSGVPDRFSGSIDSSSNSASLTISGLKTEDEADYYCQSYDSSNRVFGGGTKLTVL
notes: as for B1
For B2, in assay [1], the Kd was found to be 8.14 nM, the Response stood at 0.87, the off-rate constant (koff) was 0.000851 s⁻¹ and the kon was 105000 M⁻¹ s⁻¹. For the same molecule, in assay [2], the Kd was determined as 3.73 nM, the Response came to 0.88, the dissociation rate constant (koff) was determined as 0.000321 s⁻¹ and the kon came to 86100 M⁻¹ s⁻¹.

B3: ABL-CD3-73 (antibody, V domains shown)
VH: EVQLVESGGGLVKPGGSLRLSCAASGFTITSYSMNWVRQAPGKGLEWVSTFSRSSTYIYYADSVKGRFTISRDNAKNSLYLQMNSLRAEDTAVYYCAREKWDLLYFDYWGQGTLVTVSS
VL: NFMLTQPHSVSESPGKTVTISCTRSSGSIASNYVQWYQQRPGSSPTTVIYEDNRRPSGVPDRFSGSIDSSSNSASLTISGLKTEDEADYYCQSYDNSNRVFGGGTTLTVL
notes: as for B1
Regarding B3, in assay [1], the Kd is 1.26 nM, the Response was 1.02, the koff amounted to 0.0001 s⁻¹ and the kon came to 79700 M⁻¹ s⁻¹. In assay [2], the Kd came out at 6.12 nM, the Response was 0.99, the koff amounted to 0.000472 s⁻¹ and the kon is 77000 M⁻¹ s⁻¹.

B4: ABL-CD3-68 (antibody, V domains shown)
VH: EVQLVESGGGLVKPGGSLRLSCAASGFTFSSSIMNWVRQAPGKGLEWVSSISGSSSYIYYADSVKGRFTISRDNAKNSQYLQMKSLRAEDTAVYYCARERWNLLYFDYWGQGTLVTVSS
VL: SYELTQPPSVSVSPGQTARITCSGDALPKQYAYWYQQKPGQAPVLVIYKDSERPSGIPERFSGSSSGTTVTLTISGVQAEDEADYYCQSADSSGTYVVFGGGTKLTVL
notes: as for B1
In the case of B4, in assay [1], the Kd was determined as 4.2 nM, the Response is 0.3, the koff is 0.000973 s⁻¹ and the kon was found to be 232000 M⁻¹ s⁻¹. In assay [2], the Kd turned out to be 6.43 nM, the Response is 0.28, the koff was 0.00157 s⁻¹ and the kon stood at 244000 M⁻¹ s⁻¹.

B5: ABL-CD3-84 (antibody, V domains shown)
VH: EVQLVESGGGLVKPGGSLRLSCAASGFTFSNFIMNWVRQAPGKGLEWVSSISGSSNYIYYADSVKGRFTISGDNAKNSLYLQMNSLRAEDTAVYYCAREKWVLLFFDYWGQGTLVTVSS
VL: NFMLTQPHSVSESPGKTVTISCTRSSGSIASNYVQWYQQRPGSSPTTMIYEDTQRPSGVPDRFSGSIDSSSNSASLTISGLKTEDEADYYCQSYDSSNRVFGGGTKLTVL
notes: as for B1
For B5, in assay [1], the Kd worked out at 143 nM, the Response turned out to be 0.22, the koff worked out at 0.0203 s⁻¹ and the kon came to 142000 M⁻¹ s⁻¹. In assay [2], the Kd was 145 nM, the Response turned out to be 0.1, the koff came to 0.0614 s⁻¹ and the kon was found to be 424000 M⁻¹ s⁻¹.

B6: ABL-CD3-72 (antibody, V domains shown)
VH: EVQLVESGGGLVKPGGSLRLSCAASGFTFSTYIMNWVRQAPGKGLEWVSSISSSRSYIYYADSVKGRFTISRDNAKNSLYLQMNSLRAEDTAVYYCAREDRYRLFFDYWGQGTLVTVSS
VL: NFMLTQPHSVSESPGKTVTISCTRSSGSIASNYVQWYQQRPGSSPTTVIYEDNQRPSGVPDRFSGSIDSSSNSASLTISGLKTEDEADYYCQSYDSSNRVFGGGTKLTVL
notes: as for B1
Consider B6, for which, in assay [1], the Kd was 109 nM, the Response worked out at 0.17, the koff amounted to 0.07 s⁻¹ and the kon was 641000 M⁻¹ s⁻¹. Also, in assay [2], the Kd was 442 nM, the Response was 0.09, the koff came to 0.211 s⁻¹ and the kon was determined as 476000 M⁻¹ s⁻¹.

B7: ABL-CD3-78 (antibody, V domains shown)
VH: EVQLVESGGGLVKPGGSLRLSCAASGFTVSNYSMNWVRQAPGKGLEWVSCISRSSSYIYYADSVKGRFTISRDNAKNSLFLQMNSLRAEDTAVYYCARERWELLYFDYWGQGTLVTVSS
VL: NFMLTQPHSVSESPGKTVTISCTRSSGSIASNYVQWYQQRPGSSPTTVIYEDNQRPSGVPDRFSGSIDSSSNSASLTISGLKTEDEADYYCQSFDGSNRVFGGGTKLTVL
notes: as for B1
On to B7, for which, in assay [1], the Kd worked out at 6.64 nM, the Response is 0.56, the koff is 0.000568 s⁻¹ and the kon amounted to 85600 M⁻¹ s⁻¹. In assay [2], the Kd stood at 21.4 nM, the Response came to 0.5, the koff was determined as 0.00157 s⁻¹ and the kon worked out at 73500 M⁻¹ s⁻¹.

B8: ABL-CD3-74 (antibody, V domains shown)
VH: EVQLVESGGGLVKPGGSLRLSCAASGFTFSSYSMKWVRQAPGKGLEWVSSISSSSSYIYYADSVKGRFTISRDNAKNSLYLQMNSLRAEDTAVYYCARDRGELTLWYWGQGTLVTVSS
VL: SYELTQPPSVSVSPGQTARITCSGDALPKKYAYWYQQKSGQAPVLVIYEDSKRPSGIPERFSGSSSGTMATLTISGAQVEDEADYYCYSTDSSGNHWVFGGGTKLTVL
notes: as for B1
For B8, in assay [1], the Kd turned out to be 55.6 nM, the Response is 0.24, the koff is 0.026 s⁻¹ and the kon amounted to 467000 M⁻¹ s⁻¹. In assay [2], the equilibrium dissociation constant (Kd) came out at 124 nM, the Response came to 0.13, the koff turned out to be 0.0609 s⁻¹ and the kon turned out to be 492000 M⁻¹ s⁻¹.

B9: ABL-CD3-82 (antibody, V domains shown)
VH: EVQLVESGGGLVKPGGSLRLSCAASGFTFSSYSMNWVRQAPGKGLEWVSSISSSSSYIYYADSVKGRFTISRDNAKNSLYLQMNSLRAEDTAVYYCARDRRELLLDYWGQGTLVTVSS
VL: SYELTQPPSVSVSPGQTARITCSGDALPKKYAYWYQQKSGQAPVLVIYEDSKRPSGIPERFSGSSSGTMATLTISGAQVEDEADYYCYSTDSSGNHSWVFGGGTKLTVL
notes: as for B1
B9: in assay [1], the dissociation constant Kd was 10.6 nM, the Response was found to be 0.02, the koff is 0.00192 s⁻¹ and the kon is 182000 M⁻¹ s⁻¹. Moreover, in assay [2], the Kd is 3.18 nM, the Response is 0.02, the koff is 0.00197 s⁻¹ and the kon was 620000 M⁻¹ s⁻¹.

B10: ABL-CD3-75 (antibody, V domains shown)
VH: EVQLVESGGGLVKPGGSLRLSCAASGFTFSTYSLNWVRQAPGKGLEWVSSISVSSRYIYFADSVKGRFTISRDNAKNSLYLQMNSLRAEDTAVYYCARDRRELLLDYWGQGTLVTVSS
VL: SYELTQPPSVSVSPGQTARITCSGDALPKKYAYWYQQKSGQAPVLVIYEDSKRPSGIPERFSGSSSGTMATLTISGAQVEDEADYYCYSTDSSGNHNWVFGGGTKLTVL
notes: as for B1
Regarding B10, in assay [1], the Kd came to 29.6 nM, the Response came to 0.56, the koff worked out at 0.00726 s⁻¹ and the kon was 245000 M⁻¹ s⁻¹. In addition, in assay [2], the Kd came to 159 nM, the Response turned out to be 0.19, the koff was determined as 0.0593 s⁻¹ and the kon was determined as 373000 M⁻¹ s⁻¹.

B11: ABL-CD3-76 (antibody, V domains shown)
VH: EVQLVESGGGLVKPGGSLRLSCAASGFTFSNYYMNWVRQAPGKGLERVSSISSSSNYIYYADSVKGRFTISRDNAKNSLYLQMNSLRAEDTAVYYCARDRRELPLDYWGQGTVVTVSS
VL: SYELTQPPSVSVSPGQTARITCSGDALPKKYAYWYQQKSGQAPVLVIYEDSKRPSGIPERFSGSSSGTMATLTISGAQVEDEADYYCYSTDSSGNHWVFGGGTKLTVL
notes: as for B1
With B11, in assay [1], the Kd came out at 48.2 nM, the Response stood at 0.53, the koff turned out to be 0.0125 s⁻¹ and the kon is 260000 M⁻¹ s⁻¹. Also, in assay [2], the Kd is 134 nM, the Response worked out at 0.24, the koff stood at 0.0461 s⁻¹ and the kon turned out to be 345000 M⁻¹ s⁻¹.

B12: ABL-CD3-80 (antibody, V domains shown)
VH: EVQLVESGGGLVKPGGSLRLSCAASGFTFSGYSMNWVRQAPGKGLEWVSSISSRSRYIYYADSVQGRFTISRDNSKNSLFLQMNSLRAEDTAVYYCGRDWRELLLDYWGQGTLVTVSS
VL: SYELTQPPSVSVSPGQTARITCSGDALPKKYAYWYQQKSGQAPVLVIYEDSKRPSGIPERFSGSSSGTMATLTISGAQVEDEADYYCYSTDSSGNHSWVFGGGTKLTVL
notes: as for B1
As for B12, in assay [1], the Kd was found to be 125 nM, the Response stood at 0.36, the koff turned out to be 0.0108 s⁻¹ and the on-rate constant (kon) came to 86200 M⁻¹ s⁻¹. Also, in assay [2], the Kd turned out to be 148 nM, the Response amounted to 0.11, the koff was 0.036 s⁻¹ and the on-rate (kon) came out at 243000 M⁻¹ s⁻¹.

B13: ABL-CD3-77 (antibody, V domains shown)
VH: EVQLVESGGGLVKPGGSLRLSCAASGFTFSSYSMNWVRQAPGKGLEWVSSISSSSSYIYYADSVKGRFTISRDNAKNSLYLQMNSLRAEDTAVYYCARDGELGIGTYFDYWGQGTLVTVSS
VL: QSVLTQPPSVSGAPGQRVTISCTGSSSNIGAGYDVHWYQQLPGTAPKLLIYGNSNRPSGVPDRFSGSKSGTSASLAITGLQAEDEADYYCQSYDSSLSGSVFGGGTKLTVL
notes: as for B1
Turning to B13, in assay [1], the Kd was less than 0.001 nM, the Response came to 0.01 and the koff amounted to 0.0135 s⁻¹. Besides, in assay [2], the Kd is less than 0.001 nM, the Response is -0.01, the off-rate (koff) was less than 1e-07 s⁻¹ and the kon was 50000 M⁻¹ s⁻¹.
